The results in this text go back to patent publication US20100087631A1 (Eli Lilly, published 2010).

One may read the IC50 as the concentration that inhibits the measured activity by half.

Test [1] deals with recombinant human GDF-11 (Peprotech, Inc., Cat. #120-11) (human) (UniProt O95390). Nature of the test: ELISA, human GDF-11 coated on plate, isotype control at 1 ug/ml (column headed C12 GDF-11).
Test [2] concerns the target recombinant human HGF (R&D Systems, catalog #294-HG/CF) (human) (UniProt P14210). Nature of the test: ELISA, human HGF coated on plate, isotype control at 1 ug/ml (column headed 510C2 HGF). In general terms: An ELISA detects its analyte on a solid surface through an enzyme-linked reagent.
The target in test [3] is human GDF-8 (human) (UniProt O14793). The experiment in a line: ELISA, human GDF-8 coated on plate, isotype control at 1 ug/ml (column headed C12 GDF-8).
Test [4] addresses recombinant human GDF-11 (Peprotech, Inc., Cat. #120-11) (human) (UniProt O95390). The experiment in a line: ELISA, human GDF-11 coated on plate, isotype control at 1 ug/ml (column headed 510C2 GDF-11).
The target in test [5] is human GDF-8 (human) (UniProt O14793). The experiment in a line: ELISA, human GDF-8 coated on plate, isotype control at 1 ug/ml (column headed 510C2 GDF-8).
The target in test [6] is recombinant human HGF (R&D Systems, catalog #294-HG/CF) (human) (UniProt P14210). The experiment in a line: ELISA, human HGF coated on plate, isotype control at 1 ug/ml (column headed C12 HGF).
Sequence of recombinant human HGF (R&D Systems, catalog #294-HG/CF) (human) (P14210 32-728 limits assumed): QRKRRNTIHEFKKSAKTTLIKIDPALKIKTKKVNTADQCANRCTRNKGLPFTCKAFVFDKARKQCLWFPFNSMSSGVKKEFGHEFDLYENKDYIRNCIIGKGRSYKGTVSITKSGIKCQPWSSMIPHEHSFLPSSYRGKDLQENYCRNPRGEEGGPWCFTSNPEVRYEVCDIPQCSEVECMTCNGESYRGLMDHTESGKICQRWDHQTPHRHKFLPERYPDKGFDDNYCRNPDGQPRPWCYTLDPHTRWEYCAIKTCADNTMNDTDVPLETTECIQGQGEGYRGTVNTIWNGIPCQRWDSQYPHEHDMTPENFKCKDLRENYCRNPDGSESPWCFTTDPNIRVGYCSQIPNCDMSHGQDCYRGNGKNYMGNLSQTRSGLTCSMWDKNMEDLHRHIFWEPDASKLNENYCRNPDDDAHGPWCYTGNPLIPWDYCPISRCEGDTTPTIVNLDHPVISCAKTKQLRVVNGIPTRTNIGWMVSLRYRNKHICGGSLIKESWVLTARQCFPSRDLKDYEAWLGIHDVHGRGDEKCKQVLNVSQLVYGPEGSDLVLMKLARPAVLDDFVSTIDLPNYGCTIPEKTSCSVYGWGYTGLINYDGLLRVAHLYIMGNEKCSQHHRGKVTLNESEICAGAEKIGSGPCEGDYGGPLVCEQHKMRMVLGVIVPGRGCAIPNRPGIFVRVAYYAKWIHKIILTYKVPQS
Test [7] has as its target T1, recombinant mouse myostatin (R&D systems, Cat. #788-G8/CF) (mouse, UniProt O08689 268-376).
T1 construct: Bought protein; also called GDF-8; myostatin (R&D Systems 788-G8)
T1 sequence: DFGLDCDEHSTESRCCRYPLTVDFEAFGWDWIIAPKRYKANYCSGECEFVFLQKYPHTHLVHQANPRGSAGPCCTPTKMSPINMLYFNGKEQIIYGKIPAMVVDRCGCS
The experiment in a line: ELISA, GDF-8 coated on plate (GDF-8 down), Fab titrated, anti-kappa AP detection.

Sequence of recombinant human GDF-11 (Peprotech, Inc., Cat. #120-11) (human) (O95390 299-407 limits assumed): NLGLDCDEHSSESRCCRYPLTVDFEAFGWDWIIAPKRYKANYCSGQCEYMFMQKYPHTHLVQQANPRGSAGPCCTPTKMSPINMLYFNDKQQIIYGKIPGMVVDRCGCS

In the case of isotype control antibody, the average absorbance at 490 nm in test [1] worked out at 0.0487 OD 490 nm; in test [2] it was 0.0804 OD 490 nm; in test [3] it was 0.0519 OD 490 nm; in test [4], 0.0919 OD 490 nm; in test [5], 0.0907 OD 490 nm; in test [6], 0.049 OD 490 nm.

B1: C12 Fab (Fab, V domains shown)
VH: QLQLQESGPGLVKPSETLSLTCTVSGFSLRKVGSSVSWIRQPPGKGLEWIGHIYWDDDKRLNPSLRNRVTISVDTSKNQFSLKLSSVTAADTAVYYCARRAITTVIGGGTFDLWGQGTLVTVSS
VL: DIQMTQSPSSLSASVGDRVTITCSASSSISYMHWYQQKPGKAPKLLIYDTSKLARGVPSRFSGSGSGTDFTLTISSLQPEDFATYYCQQWYLNPLTFGGGTKVEIKR
Consider B1, for which the IC50 in test [7] worked out at 0.25 µg/mL.
